Paper PMC7005851

Experiments:
[1] = target: *H chain of ΔLd-3D8 IgG1 variants ΔLd-*HL and ΔLd-*H*L (hinge Cys11 and Cys14 to Ser); assay: sandwich ELISA (Protein L capture, AP-conjugated anti-human IgG/Fc detection); conditions: chain shown with the change; no heat; lysate of ΔLd-3D8 *H*L transfectants; empty vector est. 0.20; parent: est. 2.2; read off a plot
[2] = target: *^#H chain of ΔLd-3D8 IgG*^#H*^#L (WT VH, all C-region Cys to Ser); assay: sandwich ELISA (anti-human Cκ capture); conditions: chain shown with the change; lysates of HEK293 transfectants; empty vector est. 0.15; parent: est. 1.7; read off a plot
[3] = target: T1, *^#H chain of ΔLd-2C281 IgG*^#H*^#L (WT VH, all C-region Cys to Ser); assay: sandwich ELISA (anti-human Cκ capture); conditions: chain shown with the change; lysates of HEK293 transfectants; empty vector est. 0.15; parent: est. 1.4; read off a plot
T1 chain: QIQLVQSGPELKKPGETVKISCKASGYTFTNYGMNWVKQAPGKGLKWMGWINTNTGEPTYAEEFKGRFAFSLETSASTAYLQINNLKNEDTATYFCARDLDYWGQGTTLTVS

[4] = target: T2, *^#H chain of ΔLd-6C407 IgG*^#H*^#L (WT VH, all C-region Cys to Ser); assay: sandwich ELISA (anti-human Cκ capture); conditions: chain shown with the change; lysates of HEK293 transfectants; empty vector est. 0.15; parent: est. 1.9; read off a plot
T2 chain: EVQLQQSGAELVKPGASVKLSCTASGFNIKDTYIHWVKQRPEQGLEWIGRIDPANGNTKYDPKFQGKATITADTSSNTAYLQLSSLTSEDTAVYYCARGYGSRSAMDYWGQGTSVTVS

B1: m2 (L) and m1 (H), ΔLd-HL H:Cys11Ser (hinge); H:Cys14Ser (hinge); L:Cys107Ser (Cκ) (protein)
chain: DIVMSQSPSSLAVSAGEKVTMSCKSSQSLFNSRTRKNYLAWYQQKPGQSPKLLIYWASTRESGVPDRFTGSGPGTDFTLTISSVQAEDLAVYYCKQSYYHMYTFGSGTKLEIK
response (Abs at 405 nm) [1]: 2.3

B2: m2 (L) and m1 (H), WT ΔLd-3D8 IgG *#H*#L: all C-region Cys of inter- and intrachain disulfide bonds to Ser (residue numbers not printed) (protein)
chain: DIVMSQSPSSLAVSAGEKVTMSCKSSQSLFNSRTRKNYLAWYQQKPGQSPKLLIYWASTRESGVPDRFTGSGPGTDFTLTISSVQAEDLAVYYCKQSYYHMYTFGSGTKLEIK
response (Abs at 405 nm) [2]: 0.15

B3: m4 (L) and m3 (H), WT ΔLd-2C281 IgG *#H*#L: all C-region Cys of inter- and intrachain disulfide bonds to Ser (residue numbers not printed) (protein)
chain: DVVMTQTPLSLPVSLGDQASISCRSSQSLVHSNGNTYFHWFLQKPGQSPKLLIYKVSNRFSGVPDRFSGSGSGTDFTLKISRVEAEDLGVYFCSQSTHVPYTFGGGTKLEIK
response (Abs at 405 nm) [3]: 0.15

B4: m6 (L) and m5 (H), WT ΔLd-6C407 IgG *#H*#L: all C-region Cys of inter- and intrachain disulfide bonds to Ser (residue numbers not printed) (protein)
chain: DIVLTQSPASLAVSLGQRATISCRASKSVSTSGYSYMLWYQQKPGQPPKLLIYLASNLESGVPARFSGSGSGTDFTLNIHPVEEEDAATYYCQHSRELPWTFGGGTKLEIK
response (Abs at 405 nm) [4]: 0.15
